Measured values from the DeepSol protein solubility set.

Test: soluble on expression in E. coli; label from the status in PepcDB or PDB records

Sequence	soluble on expression in E. coli
MKRDKEVSINKKDPFSVLIMGVDERDGDKGRADTLIYMTVNPKTNTTDMVSIPRDTYTKIIGKGTMDKINHSYAFGGTQMTVDTVENFLDVPVDYFVKVNMESFRDVVDTLGGITVNSTFAFSYDGYSFGKGEITLNGKEALAYTRMRKEDPRGDFGRQDRQRQVIQGIINKGANISSITKFGDMFKVVENNVKTNLTFDNMWDIQSDYKGARKHIKQHELKGTGTKINGIYYYQADESALSDITKELKESLEKLEHHHHHH	soluble
MRTLTIEPLTKDAFAPFGDVIETDGSDHFMINNGSTMRFHRLAEVDTAQPDDKAIISIFRAESLPMPLTIGMLERHPQGSQAFIPLLGNPFLIVVAPVGDAPESALTRAFVSNGRQGVNYHRGVWHHPVLTIEKQDDFLVVDRSGSGNNCDEHYFEENQRLVLDPNPQEGLEHHHHHH	soluble
SLKYEDINENTIKITLSFDDLTDYDIKLSDFFGNQEVIEQFFYELVDELGLENRFGNVGMLTFQIQPFPQGVHMIVHEEAMLGEGGEIPDDPEEFEELMTGFYNKLNEIGADMARERGITDFKPGLGLPGTKKDEAEQEPDFIYYSIRYEDIMSVLTGIKNVKFADEESEFYRYDGNFYLVVLDNQKEKGKMHVESTRSRMMEYGEATKMSREFLQEYGECLIATRALDVLRKI	soluble
MLGVRMSGSVLDEEAEKLMDYDYLLEKLYKKVPPKSGTSEYRIPEPQIIRIGSQTVIRNFREIAQALKRDPKLVARYLQKELATAASYEEESGQLILNVKVSRKVVNQFLQLFMKTYVRCPTCGSIDTKLLRQERAYMLKCEACGAEQPVKPI	soluble
LPAMEIECRITGTLNGVEFELVGGGEGTPEQGRMTNKMKSTKGALTFSPYLLSHVMGYGFYHFGTYPSGYENPFLHAINNGGYTNTRIEKYEDGGVLHVSFSYRYEAGRVIGDFKVMGTGFPEDSVIFTDKIIRSNATVEHLHPMGDNDLDGSFTRTFSLRDGGYYSSVVDSHMHFKSAIHPSILQNGGPMFAFRRVEEDHSNTELGIVEYQHAFKTPD	soluble
MGHHHHHHSHMKKEHVLHCQFSAWYPFFRGVTIKSVILPLPQNVKDYLLDDGTLVVSGRDDPPTHSQPDSDDEAEEIQWSDDENTATLTAPEFPEFATKVQEPINSLGGSVFPKLNWSAPRDAYWIAMNSSLKCKTLSDIFLLFKSSDFITRDFTQPFIHCTDDSPDPCIEYELVLRKWCELIPGAEFRCFVKENKLIGISQRDYTQYYDHISKQKEEIRRCIQDFFKKHIQYKFLDEDFVFDIYRDSRGKVWLIDFNPFGEVTDSLLFTWEELISENNLNGDFSEVDAQEQDSPAFRCTNSEVTVQPSPYLSYRLPKDFVDLSTGRDAHKLIDFLKLKRNQQEDD	not soluble
MNFQEENENIKNDIEINLLHSAEADSVEAMMDLAVYGLAAMVAKHNKTRGEQLVLQAIAGHMRKLLAALPETESLVQTGKVYRRLEDLIFKTYLPEQ	not soluble
TDLSAQKRLAADVLDVGKNRVWFNPERQGDIADAITREDVRELVDEGAIQAKDKKGNSRGRARERQKKRAKGHQKGAGSRKGKAGARQNSKEDWESRIRAQRTKLRELRDEGTLSSSQYRDLYDKAGGGEFDSVADLERYIDANHGDA	soluble
RMMEGAIAIADLTVGDVMVPRSQMVSLPVESDLQTITKQMVESGHSRFPVHGENKDEVLGILLAKDLLRGVSANHTITNVHELLRPVGMIPESKKLNVLLKEFRLSHNHMAIVVDEYGGVAGLVTIEDILEQIVGDID	soluble
MEAVERAFRALDEGIADYLARKGIRPSCGPGCFACCYGWVTASRLEAQALLPHLTEAQKARVLEEGPRRLALLAREKDDPGFPRRFFLSRSPCPLLEAGLCGVYAHRPLACRGVLTDEDPAYCDPENPHPAPKPHHGPGHFLRVPHRMARRRMEELWEEERAQTGFLVLGELSGLLYLLLTGLPEDREGVEARLEALGVLGGRFGFQVVAAALEHHHHHH	not soluble
GPGSMQEIIDTVNRYTLRSAAFRDKPTPGLAARQFLCSLLLHRKLDSIRLSSIARYMFSTEALIAVSRDGIQTISCEGNTLWPICTIPNGLTSEISGVAVTPEGTLVCSSNGICYLEGENLRVAEDCASSSYAQNVLCISCTPDGRYIATGGGTATVTVWTSDLKPLHHFAGHTDWVRFVKFARGRSPALQLFSTGDDGVICQWDVLAGSLISRVDYSLGESIQLFEVSYYSGLMAISSGTSLIALYCPQSDNTTRAVGEDVLRLQPMALITGAHEYTPTAGKFTDDSQWLASASEDETIALTYVLDPQTCFVCKKFVTRRRCFSFMNIFNSICILAAPPVSSVIVIAACSSDGTVVQWVVDPRTNRASYTKKLQLHLGSFLGMDLIPGDDLNHLL	not soluble
MDQFECINVADAHQKLQEKEAVLVDIRDPQSFAMGHAVQAFHLTNDTLGAFMRDNDFDTPVMVMCYHGNSSKGAAQYLLQQGYDVVYSIDGGFEAWQRQFPAEVAYGA	soluble
SRGRGGTGGARRLSCGARRRAARGTSPGRRLSTAWSQPQPPPEEYAGADDVSQSPVAEEPSWVPSPRPPVPHESPEPPSGRSLVQRDIQAFLNQCGASPGEARHWLTQFQTCHHSADKPFAVIEVDEEVLKCQQGVSSLAFALAFLQRMDMKPLVVLGLPAPTAPSGCLSFWEAKAQLAKSCKVLVDALRHNAAAAVPFFGGGSVLRAAEPAPHASYGGIVSVETDLLQWCLESGSIPILCPIGETAARRSVLLDSLEVTASLAKALRPTKIIFLNNTGGLRDSSHKVLSNVNLPADLDLVCNAEWVSTKERQQMRLIVDVLSRLPHHSSAVITAASTLLTELFSNKGSGTLFKNAERMLRVRSLDKLDQGRLVDLVNASFGKKLRDDYLASLRPRLHSIYVSEGYNAAAILTMEPVLGGTPYLDKFVVSSSRQGQGSGQMLWECLRRDLQTLFWRSRVTNPINPWYFKHSDGSFSNKQWIFFWFGLADIRDSYELVNHAKGLPDSFHKPASDPGS	soluble
MTTIPVTSIAAEPAVSCSTCAACCCQLEVMLITDTGVPERFIDTDDWGGEVMRRLDDGWCAALDRDSMRCSIYELRPLICREFELGEADCLSERRGIATAYRLEHHHHHH	not soluble
MGSDKIHHHHHHMRTLTISDEIVPAVYSLNIKQRFADVQLVLACGDLPIYYLEFVVTMLGQPCFYVWGNHDAPEVQADGQVVSYARGATCIEDHVVCHQGLLIGGLGGSIRYKPDGHHQYTETQMMLRVLRMAPRLFLNRLRYGRYLDVLLTHAPPLGIHNGPDYPHRGFLALLRFIQWFRPRYLIHGHIHLSYGFGHATETLYGQTLVINTAGYRVLDLAI	not soluble
GSGSEPAVCEMCGIVGTREAFFSKTKRFCSVSCSRSYSSNSKK	soluble
VLKQGYMMKKGHRRKNWTERWFVLKPNIISYYVSEDLKDKKGDILLDENCCVESLPDKDGKKCLFLVKCFDKTFEISASDKKKKQEWIQAIHSTIHLLKLGS	soluble
MCGRIAQKSAPEDYVEILWPNARLIFDDVAGPRYNIPPGTRPLTMHRLVDQAEALARLPWGYKPHGSRFFMVNAKLETIERHGWPWKLMIGVGRILVPADGWYEWRALDSGPKPAKQSYYIHGDAPLLFAGLSAWRRGAELDEAHGFAIVTNDALGGMVDVHDRRPVALPPELAREWVDPATPVARAKEILRAGLPETAFSWYPVRQEVGSSKYQLPDAVDPLLEHHHHHH	not soluble
MSLNNDDSPALTLDEYKQAQAIVILGGGSYQTKELYAETASGAPQLERLRYAAFLQKETGLPILTTGYSLIGISEGDLMAKELNQFFNVPTQWIENKARNTEENASFTKNILIKDHIQKIILVTNQWHMKRAKYLFEKQGFDVLPAAAASYGSKGNLSAKSFIPDLGALNSNMVLLKEWIGYWKAHYVEEGHHHHHH	not soluble
MRYAIMVTGPAYGTQQASSALQFAHALLNEGHELASVFFYREGVYNANLLTSPASDEYDLVRVWQKLNTQHGVALNICVAAALRRGIIDETEAGRLELPSANLQPGFTLSGLGALAEASLTCDRVVQF	soluble
MGEIQVVAFRLGDEEFCLEISKVREIKEMMPITRVPNAPDFVEGVINLRGQITTVINLKKLLGYYDDGDLSNKKIIIAEVNGEIVGVIVDSVSDVITLTEDQIEQPPKTLASRVDMKAIKGIAKINNGERLLIMLDLDKLIGESF	soluble
MGSDKIHHHHHHMAKVIKTKKGLALNLKGKPLPEMLAEPAQSPTYAVVPDDFEGVIPKVTARPGDKVRAGSALMHHKAYPEMKFTSPVSGEVIAVNRGAKRKVLSIEVKPDGLNEYESFPVGDPSALSAEQIKELLLSSGMWGFIKQRPYDIVATPDIAPRDIYITANFTAPLAPDFDFIVRGEERALQTAIDALAKLTTGKVYVGLKPGSSLGLHNAEIVEVHGPHPAGNVGVLINHTKPINRGETVWTLKATDLIVIGRFLLTGKADFTRMIAMTGSDAAAHGYVRIMPGCNVFASFPGRLTIKESHERVIDGNVLTGKKLCEKEPFLSARCDQITVIPEGDDVDELFGWAAPRLDQYSMSRAYFSWLQGKNKEYVLDARIKGGERAMIMSNEYDRVFPMDIYPEYLLKAIIAFDIDKMEDLGIYEVAPEDFATCEFVDTSKIELQRIVREGLDMLYKEMN	not soluble
MRTMPDAPALHLTAIDSHAHVFSRGLNLASQRRYAPNYDAPLGDYLGQLRAHGFSHGVLVQPSFLGTDNRYLLSALQTVPGQLRGVVMLERDVEQATLAEMARLGVRGVRLNLMGQDMPDLTGAQWRPLLERIGEQGWHVELHRQVADIPVLVRALQPYGLDIVIDHFGRPDARRGLGQPGFAELLTLSGRGKVWVKVSGIYRLQGSPEENLAFARQALCALEAHYGAERLMWGSDWPHTQHESEVSFGSAVEQFEALGCSAQLRQALLLDTARALFGFELEHHHHHH	soluble
MITWADALGFRLVVVDSLGSADQEVVEAEDGEPFERHEMRRLTRPLWTRRKARKLSQGDLALLLGVSRASVQRWEDADKFPRPIALIAWAGRLECSVELDRVTSENDRPQPGREEA	not soluble
MGSDKIHHHHHHMAQIIAVHSFRGGTGKSNLIANMAATMALQGQRVGIIDTDIQSPGIHVIFGINENKMERTLNDYLWGYCNIKDAAYDVTEALAIEQGNTSTVKGSLHLVPCSIKASEIARVLREGYDVVRLNDGFQEFIRSLKLDYLLIDTHPGLNEETLLSIGISNVLVILLRPDHQDFQGTAVTVDVARKLKVPKMLLVINKVLPSLNFLDLQQQVEKIYNAPVVGILPLSEDMVQLASKGLFSLRYPQHPISQTIKGITNQIASLVVSH	not soluble
